{"source": "patent US9045559B2", "about": "“Method for screening inhibitors of interleukin-32 (IL-32)” (Yeda Research and Development Co. Ltd, priority 2005, dated 2015)", "molecules": {"B1": {"name": "MNEI: a 42 kDa serpin superfamily member (protein, UniProt P30740 1-379, looked up)", "Leukocyte elastase inhibitor": "MEQLSSANTRFALDLFLALSENNPAGNIFISPFSISSAMAMVFLGTRGNTAAQLSKTFHFNTVEEVHSRFQSLNADINKRGASYILKLANRLYGEKTYNFLPEFLVSTQKTYGADLASVDFQHASEDARKTINQWVKGQTEGKIPELLASGMVDNMTKLVLVNAIYFKGNWKDKFMKEATTNAPFRLNKKDRKTVKMMYQKKKFAYGYIEDLKCRVLELPYQGEELSMVILLPDDIEDESTGLKKIEEQLTLEKLHEWTKPENLDFIEVNVSLPRFKLEESYTLNSDLARLGVQDLFNSSKADLSGMSGARDIFISKIVHKSFVEVNEEGTEAAAATAGIATFCMLMPEENFTADHPFLFFIRHNSSGSILFLGRFSSP"}, "B2": {"name": "PR-3: granule serine protease, source (urinary or commercial) not stated at these places (protein)", "chain": "AEIVGGHEAQPHSRPYMASLQMRGNPGSHFCGGTLIHPSFVLTAAHCLRDIPQRLVNVVLGAHNVRTQEPTQQHFSVAQVFLNNYDAENKLNDVLLIQLSSPANLSASVATVQLPQQDQPVPHGTQCLAMGWGRVGAHDPPAQVLQELNVTVVTFFCRPHNICTFVPRRKAGICFGDSGGPLICDGIIQGIDSFVIWGCATRLFPDFFTRVALYVDWIRSTLRRVEAKGRP"}, "B3": {"name": "IL-32: recombinant human IL-32α produced in E. coli, about 20 kDa (protein)", "chain": "MCFPKVLSDDMKKLKARMHQAIERFYDKMQNAESGRGQVMSSLAELEDDFKEGYLETVAAYYEEQHPELTPLLEKERDGLRCRGNRSPVPDVEDPATEEPGESFCDKSYGAPRGDKEELTPQKCSEPQSSK"}, "B4": {"name": "urinary PR-3: human Proteinase-3 (28-32 kDa) affinity purified from human urine on an IL-32 column, elution fraction 3 (protein)", "chain": "IVGGHEAQPHSRPYMASLQMRGNPGSHFCGGTLIHPSFVLTAAHCLRDIPQRLVNVVLGAHNVRTQEPTQQHFSVAQVFLNNYDAENKLNDVLLIQLSSPANLSASVATVQLPQQDQPVPHGTQCLAMGWGRVGAHDPPAQVLQELNVTVVTFFCRPHNICTFVPRRKAGICFGDSGGPLICDGIIQGIDSFVIWGCATRLFPDFFTRVALYVDWIRSTLR"}, "B5": {"name": "commercial PR-3: commercially available human neutrophil derived PR-3 (Athens Research and Technology) (protein)", "chain": "IVGGHEAQPHSRPYMASLQMRGNPGSHFCGGTLIHPSFVLTAAHCLRDIPQRLVNVVLGAHNVRTQEPTQQHFSVAQVFLNNYDAENKLNDVLLIQLSSPANLSASVATVQLPQQDQPVPHGTQCLAMGWGRVGAHDPPAQVLQELNVTVVTFFCRPHNICTFVPRRKAGICFGDSGGPLICDGIIQGIDSFVIWGCATRLFPDFFTRVALYVDWIRSTLR"}, "B6": {"name": "VAAYYEEQHPELTPLLEKERDGLRCRGNRSPVPDVEDPATEEPGESFCDKSYGAPR GDKEELTPQKCSEPQSSK (protein, listed as Homo sapiens)", "chain": "VAAYYEEQHPELTPLLEKERDGLRCRGNRSPVPDVEDPATEEPGESFCDKSYGAPRGDKEELTPQKCSEPQSSK", "notes": "C-terminal fragment of IL-32 generated by PR-3"}}, "key": {"PR-3": {"target": "T1, PR-3 (Homo sapiens, UniProt P24158)", "T1 sequence (P24158 28-248)": "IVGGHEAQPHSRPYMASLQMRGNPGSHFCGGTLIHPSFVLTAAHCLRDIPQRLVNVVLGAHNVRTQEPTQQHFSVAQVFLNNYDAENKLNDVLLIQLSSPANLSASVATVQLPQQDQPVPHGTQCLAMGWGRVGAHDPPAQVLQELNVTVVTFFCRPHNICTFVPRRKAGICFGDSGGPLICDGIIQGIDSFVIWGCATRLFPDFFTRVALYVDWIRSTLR", "details": "cited from earlier work; for kI for PR-3: Kam, 1992"}, "IL-32 responsive cells": {"system": "IL-32 responsive cells", "experiment": "Biological activity of IL-32 and its proteolytic fragments (summary statement referring to Example 8)", "format": "cell-based", "details": "fragments generated by PR-3 cleavage", "description": "The cleavage of IL-32 and the consequent enhancement of the biological activity were both blocked by the action of PMSF.\nFor the purpose of the present description the expression “biological activity of IL-32” refers inter alia to at least one of the following biological properties:\n(i) induction of MIP-2, (ii) induction of TNF, and (iii) induction of IL-8."}, "^125I-IL-32": {"target": "T2, ^125I-IL-32 (Homo sapiens, UniProt P24001)", "T2 construct": "made in house; host or cells: E. coli (IL-32α)", "T2 sequence (P24001 1-131 isoform P24001-4)": "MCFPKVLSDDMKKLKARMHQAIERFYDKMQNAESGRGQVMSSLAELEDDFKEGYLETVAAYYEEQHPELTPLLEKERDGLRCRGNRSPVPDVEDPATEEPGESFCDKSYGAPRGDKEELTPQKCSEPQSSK", "T2 sequence (P24158 28-248 partner limits assumed)": "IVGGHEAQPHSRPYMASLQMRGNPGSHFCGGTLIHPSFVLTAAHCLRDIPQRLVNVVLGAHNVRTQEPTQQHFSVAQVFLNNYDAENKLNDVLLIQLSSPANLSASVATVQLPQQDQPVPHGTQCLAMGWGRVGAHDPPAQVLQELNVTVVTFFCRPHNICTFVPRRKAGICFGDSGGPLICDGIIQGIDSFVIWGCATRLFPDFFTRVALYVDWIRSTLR", "experiment": "Kinetics of degradation of 125I-IL-32 by urinary and commercial PR-3 (SDS-PAGE, autoradiography)", "format": "biochemical", "protocol": "After 1 minute of incubation with PR-3 the 20 kDa IL-32 (Lane 1) was cleaved into two cleavage products of 16 and 13 kDa (Lane 2). After 5 min. (Lane 3) the band corresponding to the intact IL-32 disappeared and the cleavage products remained stable for at least 60 min. (lanes 3, 4, 6, and 7). The resulting ^125I-IL-32 fragments of apparent MW of 20 kDa, 16 kDa and 13 kDa are indicated on the left side of the FIG.\nThe experiment was carried out essentially as indicated in FIG. 4 (Example 5) except, that incubation of PR-3 and IL32 was limited to up to 5 minutes and that both urinary and commercial PR-3 were used. Urinary (Lines 1-3) or commercial PR-3 (Lines 5-7) were incubated with ^125I-IL-32 for 0, 1 and 5 minutes.\nAffinity purified urinary PR-3 (elution 3 fraction from Example 1, FIG. 1, 50 μl) was added to ^125I-IL-32 (250,000 cpm in 10 μl of gelatin solution) and incubated at 37° C. for 0, 1, 5, 15, 30, and 60 min. (FIG. 4). Degradation was stopped by the addition of SDS-PAGE sample buffer and by boiling for 10 min. Samples containing ^125I-IL-32 and PR-3 incubated at different periods of time (0-60 min.) were resolved on 12% SDS-PAGE under reducing conditions. The gel was dried and autoradiographed. The results summarized on FIG. 4 show the reduction in the 20 kDa band representing intact IL-32 (FIG. 4, lane 1) and the increase in the levels of a 16 and 13 kDa IL-32 cleavage products after a 1-minute incubation with PR-3 (FIG. 4, lane 2).\nUrinary PR-3 or commercial PR-3 (Athens Research and Technology) were incubated with ^125I-IL-32 for 0, 1 and 5 min. Digestion was stopped by the addition of SDS-PAGE sample buffer and by boiling for 10 min. The samples were resolved on SDS-PAGE under reducing conditions. The gel was dried and autoradiographed. […] This difference is probably due to a different specific activity of urinary vs. commercial PR3."}, "Raw 264.7 cells": {"system": "Raw 264.7 cells", "experiment": "MIP-2 secretion by mouse macrophage Raw 264.7 cells stimulated with IL-32 or PR-3-pretreated IL-32", "format": "cell-based", "details": "IL-32 20 or 200 ng/ml; PR-3 100 ng/ml, 5 min pretreatment; 16-20 h; polymyxin B 5 μg/ml", "protocol": "Mouse macrophage Raw 264.7 cell line were seeded in a 96 well plate and incubated with IL-32 (20 or 200 ng/ml), IL-32 pretreated with PR-3 (100 ng/ml) for 5 min. or with PR-3 alone as the a control, and MIP-2 secreted into the cell culture medium was measured. […] PR-3 alone had no effect on the cells.\nMouse macrophage Raw 264.7 cell line (American Type Culture Collection, ATCC) was maintained in RP MI-1640 medium containing 10% FCS. Bioassays were performed in 96 well plates. Briefly, Raw cells (5×10^5/ml, 0.1 ml/per well) were seeded and cultured until cells adhered to the plate. The medium was removed and the cells were then stimulated with fresh medium (without FCS) containing different concentration of IL-32 or IL-32 pre-treated with PR-3 for 5 min at room temperature in the presence 5 μg/ml of the LPS blocker polymyxin B (Bedford Laboratories, Bedford, Ohio). The plates were incubated at 37° C. with 5% CO2 for 16-20 h and then the culture supernatants were collected to measure MIP-2 released by the cell culture."}, "[1]": {"system": "human peripheral blood mononuclear cells (PBMC)", "experiment": "IL-8 secretion by human PBMC stimulated with IL-32 or PR-3-pretreated IL-32", "format": "cell-based", "details": "IL-32 20 or 200 ng/ml; PR-3 100 ng/ml, 5 min pretreatment", "protocol": "Human PBMC cells were seeded in 96 well plates and incubated with IL-32 (20 or 200 ng/ml), IL-32 pretreated with PR-3 (100 ng/ml) for 5 min. or with PR-3 alone as the a control. The content of IL-8 into the cell culture medium was measured.\nSimilar enhancement of IL-32 activity by pre-treatment with PR-3 was shown in an experiment carried out with human peripheral blood mononuclear cells (PBMC). PBMC were prepared as previously described [Kim, 2005 #36] and seeded at a concentration of 5×10^5 cells per well in 96 well plates. The experimental setting of stimulation with IL-32 and IL-32 pre treated with PR-3 was identical to that described above for the mouse Raw cells. After stimulation of the human PBMC cells with either IL-32 or IL-32 pre treated with PR-3, the culture supernatants were collected to measure human IL-8 released by the cells."}}, "note": "“Also recorded” adds a separate entry of the source. No end group written: not given here."}
{"molecule": "O=c1oc(Cl)c(Cl)c2ccccc12", "note": "[3,4-dichloroisocoumarin]", "values": [{"measurement": "kI for PR-3", "setting": "PR-3", "result": 2600, "unit": "M⁻¹ s⁻¹"}]}
{"molecule": "Nc1ccc2c(Cl)c(OCCBr)oc(=O)c2c1", "note": "[7-amino-4-chloro-3-(2-bromoethoxy) isocoumarin]", "values": [{"measurement": "kI for PR-3", "setting": "PR-3", "result": 4700, "unit": "M⁻¹ s⁻¹"}]}
{"molecule": "Cc1ccc(C(=O)Nc2ccc(S(=O)(=O)O)c3cc(S(=O)(=O)O)cc(S(=O)(=O)O)c23)cc1NC(=O)c1cccc(NC(=O)Nc2cccc(C(=O)Nc3cc(C(=O)Nc4ccc(S(=O)(=O)O)c5cc(S(=O)(=O)O)cc(S(=O)(=O)O)c45)ccc3C)c2)c1", "note": "[Suramin]", "values": [{"measurement": "Ki", "setting": "PR-3; Cadene, 1997", "result": 500, "unit": "nM"}]}
{"molecule": "Elafin: a human skin derived peptide that inhibits human leukocyte elastase (AQEPVKGPVSTKPGSCPIILIRCAMLNPPNRCLKDTDCPGIKKCCEGSCGMACFVPQ; ends and bridges not checked; cysteine pairing not given here; UniProt P19957 61-117, looked up)", "values": [{"measurement": "IC50", "setting": "PR-3; Wiedow, 1991, Zani, 2004", "result": 9.5, "unit": "nM"}, {"measurement": "potency compared with antileukoprotease and eglin C", "setting": "PR-3; inhibition of PR-3", "result": "more than 100 fold"}]}
{"molecule": "MCFPKVLSDDMKKLKARMHQAIERFYDKMQNAESGRGQVMSSLAELEDDFKEGYLET (listed as Homo sapiens) [13 kDa (SEQ ID NO: 1), supposed N-terminal fragment of IL-32 generated by PR-3]", "values": [{"measurement": "biological activity compared to the intact IL-32 protein", "setting": "IL-32 responsive cells", "result": "enhanced biological activity"}]}
{"molecule": "B1", "values": [{"measurement": "rate of PR-3 inhibition", "setting": "PR-3; Cooley, 2001", "result": "> 10^7 M^−1·s^−1"}]}
{"molecule": "B2", "values": [{"measurement": "digestion of IL-32 after overnight incubation with PR-3", "setting": "^125I-IL-32; overnight at 4° C., no product higher than the 10 kDa marker", "result": "complete digestion"}, {"measurement": "MIP-2 secreted into the cell culture medium", "setting": "Raw 264.7 cells", "result": "no effect"}, {"measurement": "IL-8 secreted into the cell culture medium", "setting": "[1]", "result": "did not induce IL-8"}]}
{"molecule": "B3", "values": [{"measurement": "MIP-2 secreted into the cell culture medium", "setting": "Raw 264.7 cells", "result": "induced the secretion of MIP-2"}, {"measurement": "IL-8 secreted into the cell culture medium", "setting": "[1]", "result": "induced the secretion of IL-8"}]}
{"molecule": "B4", "values": [{"measurement": "incubation time to complete disappearance of the 20 kDa intact IL-32 band", "setting": "^125I-IL-32; 37° C., cleaved into 16 and 13 kDa fragments", "result": 5, "unit": "min"}]}
{"molecule": "B5", "values": [{"measurement": "potency of IL-32 cleavage, commercial vs urinary PR-3", "setting": "^125I-IL-32; incubation 0, 1 and 5 min", "result": "more potent than the urinary PR-3; also recorded: more efficient than the urine-derived PR-3"}]}
{"molecule": "B6", "values": [{"measurement": "biological activity compared to the intact IL-32 protein", "setting": "IL-32 responsive cells", "result": "enhanced biological activity"}]}
